# Data taken from PMC6498484.
# Target: T1, PoxCxrA17-150 (Penicillium oxalicum HP7-1) (UniProt A0A2H4WV05)
# T1 sequence: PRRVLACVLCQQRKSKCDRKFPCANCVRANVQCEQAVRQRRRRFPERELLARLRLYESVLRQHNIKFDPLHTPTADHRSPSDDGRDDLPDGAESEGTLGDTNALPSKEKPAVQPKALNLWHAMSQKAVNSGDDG
# Experiment: EMSA
# Conditions: EMSA: 20 mM Tris-HCl pH 8.0, 50 mM KCl, 0.1 mg/mL BSA, 5% glycerol, 1 mM DTT, 1 ug salmon sperm DNA, ~50 ng probe, 30 min at 30 C; footprinting at 30 C
row,Sequence,binding
1,AGGAGACGAACAAATGAAAAACAGTTGGCCAACAATTCAACCAAGACCGGCTTCCCTGGAATTGCGGGGAGGGGAGAGTCGTGAAAGTGGATAAGGCTCCTTAATTTTTTTTTTCCCTTCCTCCTGGCCATCGTGTTTTATGGAGGTTCGCTTCCGTCTTGACTATCCGCCGTCGCACTCTTAGTCTCCCCGTTGACCCTCTTTTTCTTCACATCGTCAGATCGTGATCGTTGATCGTTCGGTGCTCTTCTGCTTCTTTTGCTGCTCACCTCCTCCTCCCCCCAGCTGA (double strand) [PBM_PoxClrB-6'],binds
2,AGGAGACGAACAAATGAAAAACAGTTGGCCAACAATTCAACCAAGACCGGCTTCCCTGGAATTGCGGGGAGGGGAGAGTCGTGAAAGTGGATAAGGCTCCTTAATTTTTTTTTTCCCTTCCTCCTGGCCATCGTGTTTTATGGAGGTTCGCTTCCGTCTTGACTATCCGCCGTCGCACTCTTAGTCTCCCCGTTGACCCTCTTTTTCTTCACATCGTCAGATCGTGATCGTTGATCGTTCGGTGCTCTTCTGCTTCTTTTGCTGCTCACCTCCTCCTCCCCCCAGCTGAGTCCTT (double strand) [PoxClrB-295],binds
3,AGGATCTGATGAAAGGGGGGTGGTGGAGGAGATGAGGAAGGAATGGATGATGAACACCAGAGTCGAGGTGATGGCACCTCTTCTTATATAGTTGCTTCCTTGGGTGGATCCTGAAGCAATTCGCCTCTC (double strand) [PBM_POX05587-6'],binds
4,CCCCTTTCATCAGATCCTCAAAGAACAAAATTGATCATCATCTCTTTTGATCTTTGATCCAATCCATCACA (double strand) [PBM1 probe],binds
5,GACTCAGCTGGGGGGAGGAGGAGGTGAGCAGCAAAAGAAGCAGAAGAGCACCGAACGATCAACGATCACGATCTGACGATGTGAAGAAAAAGAGGGTCAACGGGGAGACTAAGAGTGCGACGGCGGATAGTCAAGACGGAAGCGAACCTCCATAAAACACGATGGCCAGGAGGAAGGGAAAAAAAAAATTAAGGAGCCTTATCCACTTTCACGACTCTCCCCTCCCCGCAATTCCAGGGAAGCCGGTCTTGGTTGAATTGTTGGCCAACTGTTTTTCATTTGTTCGTCTCCT (double strand) [PBM_PoxClrB-3'],binds
6,GAGAGGCGAATTGCTTCAGGATCCACCCAAGGAAGCAACTATATAAGAAGAGGTGCCATCACCTCGACTCTGGTGTTCATCATCCATTCCTTCCTCATCTCCTCCACCACCCC (double strand) [PBM2 probe],no binding
7,GGTGAGCAGCAAAAGAAGCAGAAGAGCACCGAACGATCAACGATCACGATCTGACGATGTGAAGAAAAAGAGGGTCAACGGGGAGACTAAGAGTGCGACGGCGGATAGTCAAGACGGAAGCGAACCTCCATAAAACACGATGGCCAGGAGGAAGGGAAAAAAAAAATTAAGGAGCCTTATCCACTTTCACGACTCTCCCCTCCCCGCAATTCCAGGGAAGCCGGTCTTGGTTGAATTGTTGGCCAACTGTTTTTCATTTGTTCGTCTCCT (double strand) [PoxClrB-270],no binding
8,TGGGGGGAGGAGGAGGTGAGCAGCAAAAGAAGCAGAAGAGCACCGAACGATCAACGATCACGATCTGACGATGTGAAGAAAAAGAGGGTCAACGGGGAGACTAAGAGTGCGACGGCGGATAGTCAAGACGGAAGCGAACCTCCATAAAACACGATGGCCAGGAGGAAGGGAAAAAAAAAATTAAGGAGCCTTATCCACTTTCACGACTCTCCCCTCCCCGCAATTCCAGGGAAGCCGGTCTTGGTTGAATTGTTGGCCAACTGTTTTTCATTTGTTCGTCTCCT (double strand) [PoxClrB-284],no binding
9,TGTGATGGATTGGATCAAAGATCAAAAGAGATGATGATCAATTTTGTTCTTTGAGGA (double strand) [PBM_POX05587-6],binds
10,TGTGATGGATTGGATCAAAGATCAAAAGAGATGATGATCAATTTTGTTCTTTGAGGATCT (double strand) [PBM_POX05587-3],binds
11,TTGAGGATCTGATGAAAGGGGGGTGGTGGAGGAGATGAGGAAGGAATGGATGATGAACACCAGAGTCGAGGTGATGGCACCTCTTCTTATATAGTTGCTTCCTTGGGTGGATCCTGAAGCAATTCGCCTCTC (double strand) [PBM_POX05587-3'],binds
